# B1: 6xHIS-3xFLAG-Ssa2 (natural protein)
# chain: not shown
# notes: Full length SSA2 cloned into pET32b with an N-terminal 6xHIS-3xFLAG tag; pET32b normally adds N-terminal thioredoxin, His and S tags; Plasmids are in Supplementary file 2; also called FLAG-rSsa2; 3xFLAG-rSsa2; source: E. coli BL21(DE3), purified (Ni-NTA agarose, imidazole elution); not shown: 6xHIS, N-terminal, kept; 3xFLAG, N-terminal, kept
# B2: recombinant Ssa2 (HIS-tagged, tags reversed) (natural protein)
# chain: not shown
# notes: also called rSsa2; source: construct not described in the methods
# Assays:
# Details in all cases: both partners purified
# [1] = target: T1, Hsf1-6xHIS phosphorylated in vitro by casein kinase II (S. cerevisiae, UniProt P10961 1-833, phosphorylated by casein kinase II (mobility shift); sites not stated); assay: co-IP; anti-FLAG IP of recombinant proteins with 3xFLAG-rSsa2 as bait; rHsf1 pre-incubated with ATP alone, ATP and active CKII, or ATP and boiled CKII; Western blot anti-HIS for rHsf1
# T1 construct: Full-length wild type HSF1 cloned into pET32b with a C-terminal 6x-HIS tag; also called rHsf1 pre-incubated with ATP and active CKII; phosphorylated Hsf1; source: E. coli BL21(DE3), purified (Ni-NTA agarose), then phosphorylated in vitro with casein kinase II (NEB); not shown: 6xHIS, C-terminal, kept
# T1 sequence (looked up): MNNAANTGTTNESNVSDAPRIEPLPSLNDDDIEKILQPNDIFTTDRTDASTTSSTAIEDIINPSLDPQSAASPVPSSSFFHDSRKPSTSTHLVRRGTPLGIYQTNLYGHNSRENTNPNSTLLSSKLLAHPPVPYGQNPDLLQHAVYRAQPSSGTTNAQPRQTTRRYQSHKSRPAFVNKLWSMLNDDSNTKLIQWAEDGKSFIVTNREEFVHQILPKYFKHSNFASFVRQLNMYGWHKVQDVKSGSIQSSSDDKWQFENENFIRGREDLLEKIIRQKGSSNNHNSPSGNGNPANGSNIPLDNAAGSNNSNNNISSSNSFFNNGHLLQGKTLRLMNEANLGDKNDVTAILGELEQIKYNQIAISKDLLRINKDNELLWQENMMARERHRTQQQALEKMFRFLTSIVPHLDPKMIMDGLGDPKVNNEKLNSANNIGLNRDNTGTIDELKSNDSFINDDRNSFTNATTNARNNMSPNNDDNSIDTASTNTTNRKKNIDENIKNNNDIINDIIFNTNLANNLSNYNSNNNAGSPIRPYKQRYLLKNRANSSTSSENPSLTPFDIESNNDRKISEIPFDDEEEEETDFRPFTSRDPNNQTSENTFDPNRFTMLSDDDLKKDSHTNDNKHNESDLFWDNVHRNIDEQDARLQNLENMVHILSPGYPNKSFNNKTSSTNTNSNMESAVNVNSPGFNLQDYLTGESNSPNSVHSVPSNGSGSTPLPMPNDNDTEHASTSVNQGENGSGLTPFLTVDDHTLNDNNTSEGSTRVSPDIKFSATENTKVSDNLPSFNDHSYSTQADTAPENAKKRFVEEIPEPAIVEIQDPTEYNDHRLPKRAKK
# Hsf1-6xHIS = target: T2, Hsf1-6xHIS (S. cerevisiae, UniProt P10961 1-833); assay: as above
# T2 construct: Full-length wild type HSF1 cloned into pET32b with a C-terminal 6x-HIS tag; pET32b normally adds N-terminal thioredoxin, His and S tags; Plasmids are in Supplementary file 2; also called rHsf1; recombinant Hsf1; source: E. coli BL21(DE3), purified (Ni-NTA agarose, imidazole elution); not shown: 6xHIS, C-terminal, kept
# T2 sequence (looked up): T1 sequence (looked up)
# 3xFLAG-Hsf1 = target: T3, 3xFLAG-Hsf1 (S. cerevisiae, UniProt P10961 1-833); assay: co-IP; anti-FLAG IP of recombinant proteins with rHsf1-3xFLAG as bait, Western blot anti-HIS for rSsa2; IP buffer alone or with 1 mM ATP
# T3 construct: The text prints 3xFLAG-Hsf1 and the legend prints rHsf1-3xFLAG, so the tag end is left open; also called rHsf1-3xFLAG; rHsf1; source: construct not described in the methods
# T3 sequence (looked up): T1 sequence (looked up)
# Aβ42 peptide = target: T4, Aβ42 peptide (UniProt P05067 672-713); assay: co-IP; anti-FLAG IP of recombinant proteins with rHsf1-3xFLAG as bait, in the presence of five-fold molar excess (25 µM) of Aβ42 peptide as competitor
# T4 construct: also called hydrophobic peptide
# T4 sequence (P05067 672-713): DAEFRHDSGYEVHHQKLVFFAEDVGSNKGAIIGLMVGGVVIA
Binder,binding result [1],binding result (Hsf1-6xHIS),binding result (3xFLAG-Hsf1),binding result (Aβ42 peptide)
B1,binds,binds,–,–
B2,–,–,binds,binds

# Source: paper PMC5127643, “Dynamic control of Hsf1 during heat shock by a chaperone switch and phosphorylation” (eLife, 2016)
